# Results taken from US5352587A, “Compositions and methods for the synthesis of natriuretic protein receptor B and methods of use” (Genentech, Inc., priority 1991, dated 1994).
# Ends that are not written are not given here.
# T1: NPRB (Homo sapiens, UniProt P20594)
# T1 construct: whole cells or solubilized membranes
# T1 sequence (P20594 23-1047): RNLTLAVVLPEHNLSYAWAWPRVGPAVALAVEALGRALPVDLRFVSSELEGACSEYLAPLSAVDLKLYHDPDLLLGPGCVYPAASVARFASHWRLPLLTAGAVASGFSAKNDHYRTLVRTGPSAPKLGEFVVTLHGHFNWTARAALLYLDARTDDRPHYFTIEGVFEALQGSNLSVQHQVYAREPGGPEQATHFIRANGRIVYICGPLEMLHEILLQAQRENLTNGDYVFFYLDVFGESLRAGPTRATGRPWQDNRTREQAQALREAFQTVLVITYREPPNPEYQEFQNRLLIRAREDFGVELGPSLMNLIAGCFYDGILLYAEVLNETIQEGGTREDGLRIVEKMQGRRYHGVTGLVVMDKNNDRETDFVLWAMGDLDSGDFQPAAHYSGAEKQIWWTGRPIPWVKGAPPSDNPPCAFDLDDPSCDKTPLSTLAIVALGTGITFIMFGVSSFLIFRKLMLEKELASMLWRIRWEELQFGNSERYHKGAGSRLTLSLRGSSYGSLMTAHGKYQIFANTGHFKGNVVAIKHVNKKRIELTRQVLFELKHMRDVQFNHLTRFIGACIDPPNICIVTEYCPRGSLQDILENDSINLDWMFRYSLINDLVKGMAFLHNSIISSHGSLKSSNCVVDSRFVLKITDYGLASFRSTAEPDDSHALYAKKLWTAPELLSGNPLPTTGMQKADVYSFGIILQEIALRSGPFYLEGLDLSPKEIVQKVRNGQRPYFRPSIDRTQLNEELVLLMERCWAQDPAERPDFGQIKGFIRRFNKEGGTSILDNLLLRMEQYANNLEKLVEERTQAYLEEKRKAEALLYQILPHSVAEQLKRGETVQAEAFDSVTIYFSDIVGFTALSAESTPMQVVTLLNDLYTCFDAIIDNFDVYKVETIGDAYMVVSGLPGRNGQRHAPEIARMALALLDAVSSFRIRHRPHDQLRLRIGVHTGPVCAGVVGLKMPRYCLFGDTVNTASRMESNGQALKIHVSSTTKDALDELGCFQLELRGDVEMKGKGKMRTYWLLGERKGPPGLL
# T2: NPRA (Homo sapiens, UniProt P16066)
# T2 construct: whole cells or solubilized membranes
# T2 sequence (P16066 33-1061): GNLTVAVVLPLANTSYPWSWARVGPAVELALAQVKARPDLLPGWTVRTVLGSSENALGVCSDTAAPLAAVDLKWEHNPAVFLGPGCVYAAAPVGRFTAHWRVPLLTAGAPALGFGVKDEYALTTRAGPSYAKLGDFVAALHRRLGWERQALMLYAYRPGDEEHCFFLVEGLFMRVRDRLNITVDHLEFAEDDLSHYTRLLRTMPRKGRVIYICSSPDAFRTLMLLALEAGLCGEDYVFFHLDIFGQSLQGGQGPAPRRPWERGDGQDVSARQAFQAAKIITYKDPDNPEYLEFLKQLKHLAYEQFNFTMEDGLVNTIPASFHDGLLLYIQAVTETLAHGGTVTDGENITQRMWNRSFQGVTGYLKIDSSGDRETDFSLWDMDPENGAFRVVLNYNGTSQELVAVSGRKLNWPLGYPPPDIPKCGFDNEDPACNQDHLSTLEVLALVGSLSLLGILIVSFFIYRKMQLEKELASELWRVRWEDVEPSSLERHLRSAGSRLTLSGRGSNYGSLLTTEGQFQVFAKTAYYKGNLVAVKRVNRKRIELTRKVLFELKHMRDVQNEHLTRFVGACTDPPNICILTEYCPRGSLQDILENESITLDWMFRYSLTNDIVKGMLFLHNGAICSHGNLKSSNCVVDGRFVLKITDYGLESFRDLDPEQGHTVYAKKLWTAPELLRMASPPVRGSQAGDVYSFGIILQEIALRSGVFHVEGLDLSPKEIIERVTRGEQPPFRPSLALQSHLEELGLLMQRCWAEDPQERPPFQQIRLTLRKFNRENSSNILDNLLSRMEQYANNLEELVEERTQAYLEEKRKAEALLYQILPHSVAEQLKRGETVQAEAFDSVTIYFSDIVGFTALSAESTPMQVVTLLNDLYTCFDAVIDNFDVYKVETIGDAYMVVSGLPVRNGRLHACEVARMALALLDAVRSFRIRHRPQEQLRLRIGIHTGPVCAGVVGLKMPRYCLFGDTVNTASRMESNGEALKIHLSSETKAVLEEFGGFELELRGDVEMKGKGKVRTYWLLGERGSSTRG
# Columns and labels:
# [1] = molecular target: T1, NPRB; test: Specific binding to COS-7 cells transfected with pRK-NPRB; conditions: Table 2, 0.5 nM, room temperature, 1 hr
# Protocol: (§1) To examine the biochemical properties of the NPRB receptor, we constructed an expression vector in which the coding sequence was placed under the transcriptional control of the cytomegalovirus immediate-early promoter (Table 2). […] The NPRB expression vector was transfected into COS-2 cells in a transient expression assay and the detergent solubilized guanylyl cyclase activity of a membrane fraction was measured (Table 2). […] Specific binding of [^125 l]-human ANP (ANP) and [^125 l]-porcine BNP (pBNP) to transfected cells was determined in the presence of absence of unlabeled peptides.
# (§2) COS-7 cells maintained in Dulbecco's modified Eagles' medium (DMEM) supplemented with 10% fetal calf serum were seeded at 5×10^6 cells per 100 mm plate (GC assay) or 1×10^5 per 35 mm plate (binding assay). Twelve house later, cells were transfected with control vector^5 (1 mg/ml) using DEAE-dextran.
# (§3) Following the incubation, cells were rinsed with cold PBS, and dissolved in 2 ml of 0.2M NaOH and radioactivity was measured in gamma counter. All measurements were in triplicate. […] Specific binding in table 2 was calculated by subtracting the background binding from the total binding.
# [2] = molecular target: T1, NPRB; test: Transient expression whole-cell stimulation of cGMP production, NPRB-transfected COS-7 cells; type: cell-based
# Protocol: Ligand-dependent activation of the cytoplasmic guanylyl cyclase (GC) domains of the human NPRB and NPRA receptors was examined in transient expression whole-cell stimulation assays. In FIG. 3, the natriuretic peptide stimulation of cGMP production is shown. COS-7 cells transfected with pRK (control; pane C), human NPRA expression vector^5 (panel A), or human NPRB receptor expression vector (panel B) were either not treated (panel C) or stimulated with 500 nM porcine BNP (BNP) or human ANP (ANP) for 5 minutes. Results are expressed as the mean amount of cGMP (pmoles) per culture±standard deviation for 3 independent determinations.
# The COS-7 cells were seeded at a density of 1×10^6 cells per well in a 60 mm plate with high glucose DMEM plus 10% heat inactivated dialyzed calf serum and maintained for 12 hours at 37° C. in 7%, 93% air. […] of plasmid DNA was transfected with […] of DEAE-dextran in 2 ml of high glucose DMEM±10% Nuserum (Gibco) for 4 hours. Cells were shocked with 20% glycerol in PBS for 1 minute, fresh medium was added and cells were maintained for 72 hours prior to stimulation. Non-treated cultures were incubated at 37° C. in DMEM with 25 mM Hepes pH 7.2, […] IBMX at 37° C. for 10 minutes, medium was aspirated and 6% trichloroacetic acid (TCA) was added. Stimulated samples were treated for an additional 5 minutes in the presence of 500 nM peptide before TCA treatment. Samples were frozen at -20° C. for 1 hr, thawed at room temperature, and cell debris was removed by centrifugation at 2500 xg for 10 minutes. Samples were extracted once with 4 volumes of water-saturated ether, briefly evaporated and assayed for cGMP as described in Table 2.
# [3] = molecular target: T2, NPRA; test: Specific binding to COS-7 cells transfected with pRK-NPRA; conditions: Table 2, 0.5 nM, room temperature, 1 hr
# Protocol: as §1, §2, §3
# [4] = tested on: guanylyl cyclase; test: Detergent-solubilized membrane (particulate) guanylyl cyclase activity of transfected COS cells; type: biochemical, human; conditions: for guanylyl cyclase specific activity, fold higher than control cells: COS-2 cells, membrane fraction; for Guanylyl Cyclase Activity: Table 2, transfected COS-7 cells, mean ± standard deviation of triplicate determinations
# Protocol: To examine the biochemical properties of the NPRB receptor, we constructed an expression vector in which the coding sequence was placed under the transcriptional control of the cytomegalovirus immediate-early promoter (Table 2). The vector pRK is disclosed in EP 307,247, published Mar. 15, 1989. The NPRB expression vector was transfected into […] in a transient expression assay and the detergent solubilized guanylyl cyclase activity of a membrane fraction was measured (Table 2). Cells transfected with the NPRB expression vector has about eleven-fold higher guanylyl cyclase specific activity that control cells, while cells transfected with an NPRA receptor expression vector^5 using pRK has a six-fold higher guanylyl cyclase specific activity. Specific binding of [^125 l]-human ANP (ANP) and [^125 l]-porcine BNP (pBNP) to transfected cells was determined in the presence of absence of unlabeled peptides.
# as §2, with “DEAE-dextran. The vector pRK-NPRBR contained nucleotides 253 to 3470 (FIG. 1) of the NPRB receptor in the expression vector pRK5 under the control of the cytomegalovirus immediate early promoter.” for “DEAE-dextran.”
# Guanylate cyclase activity was determined forty-eight hours after transfection, the cells were washed with phosphate buffer saline (PBS), scraped into 4 ml PBS and homogenized with 40 strokes of a Dounce homogenizer at 0° C. Nuclei were pelleted and the supernatant was centrifuged at 100,000 xg for 30 minutes in SW 55- Ti rotor to obtain a membrane pellet. Membrane proteins were solubilized by incubation or ice for 10 minutes in solution containing 20 mM Hepes, pH 7.4, 200 mM NaCl, 10% glycerol, 1% Triton X-100 and 1 mM dithiothreitol. Protein concentrations were measured by a dye binding assay (BioRad). Gyanylate cyclase reactions contained […] of membrane proteins in […] of 20 mM Hepes pH 7.4, 30 units of creatine phosphokinase, 1 mM GTP, 4 mM MnCl2 and 0.5 mM isobutyl methylxanthine (IBMX). After incubation at 37° C. for 10 minutes the reaction was stopped by addition of […] of 50 mM acetic acid (pH 6.2) and boiled for 3 min. Aliquots were analyzed for cGMP after acetylation with 1/20 volume of acetic anhydride/triethylamine (1:2) then radioimmuno-assay (Biomedical Technologies, Inc.). Results are expressed in Table 2 as the mean±standard deviation of triplicate determinations.
molecule,measurement,setting,value
"[^125 l]-ANP: [^125 l]-human ANP (1800 Ci/mmole, Amersham)",Specific Binding of [^125 l]-ANP,[1],"10,694 ± 1412 cpm"
"pBNP: porcine BNP (brain natriuretic peptide) (DSGCFGRRLDRIGSLSGLGCNVLRRY; ends and bridges not checked; cysteine pairing not given here; UniProt P07634 106-131, looked up)",fold increase in cGMP over control transfected cells,"[2]; NPRB, 500 nM peptide, 5 minutes",9.7 fold
same,fold more effective than ANP in the activation of NPRB GC activity,"[2]; NPRB, 500 nM peptide, 5 minutes, versus ANP",6.4 fold
same,activation of NPRB receptor (in words),[2]; pBNP as compared to human ANP,preferentially activated
"[^125 l]-pBNP: [^125 l]-porcine BNP (600 Ci/mmol) (DSGCFGRRLDRIGSLSGLGCNVLRRY; ends and bridges not checked; also: 125I label, position not given here; UniProt P07634 106-131, looked up)",Specific Binding of [^125 l]-pBNP,[1],"3,643 ± 26 cpm"
same,Specific Binding of [^125 l]-pBNP,[3],"5,721 ± 1107 cpm"
"NPRA: 120-140 kd NPRA receptor, a membrane form of guanylyl cyclase","guanylyl cyclase specific activity, fold higher than control cells",[4],six
same,Guanylyl Cyclase Activity,[4],1.91 ± 0.01 pmole cGMP/min/mg protein
"NPRB: human natriuretic peptide receptor B having the sequence of FIG. 1, expressed from pRK vector (protein, UniProt P20594 23-1047, looked up) Atrial natriuretic peptide …: RNLTLAVVLPEHNLSYAWAWPRVGPAVALAVEALGRALPVDLRFVSSELEGACSEYLAPLSAVDLKLYHDPDLLLGPGCVYPAASVARFASHWRLPLLTAGAVASGFSAKNDHYRTLVRTGPSAPKLGEFVVTLHGHFNWTARAALLYLDARTDDRPHYFTIEGVFEALQGSNLSVQHQVYAREPGGPEQATHFIRANGRIVYICGPLEMLHEILLQAQRENLTNGDYVFFYLDVFGESLRAGPTRATGRPWQDNRTREQAQALREAFQTVLVITYREPPNPEYQEFQNRLLIRAREDFGVELGPSLMNLIAGCFYDGILLYAEVLNETIQEGGTREDGLRIVEKMQGRRYHGVTGLVVMDKNNDRETDFVLWAMGDLDSGDFQPAAHYSGAEKQIWWTGRPIPWVKGAPPSDNPPCAFDLDDPSCDKTPLSTLAIVALGTGITFIMFGVSSFLIFRKLMLEKELASMLWRIRWEELQFGNSERYHKGAGSRLTLSLRGSSYGSLMTAHGKYQIFANTGHFKGNVVAIKHVNKKRIELTRQVLFELKHMRDVQFNHLTRFIGACIDPPNICIVTEYCPRGSLQDILENDSINLDWMFRYSLINDLVKGMAFLHNSIISSHGSLKSSNCVVDSRFVLKITDYGLASFRSTAEPDDSHALYAKKLWTAPELLSGNPLPTTGMQKADVYSFGIILQEIALRSGPFYLEGLDLSPKEIVQKVRNGQRPYFRPSIDRTQLNEELVLLMERCWAQDPAERPDFGQIKGFIRRFNKEGGTSILDNLLLRMEQYANNLEKLVEERTQAYLEEKRKAEALLYQILPHSVAEQLKRGETVQAEAFDSVTIYFSDIVGFTALSAESTPMQVVTLLNDLYTCFDAIIDNFDVYKVETIGDAYMVVSGLPGRNGQRHAPEIARMALALLDAVSSFRIRHRPHDQLRLRIGVHTGPVCAGVVGLKMPRYCLFGDTVNTASRMESNGQALKIHVSSTTKDALDELGCFQLELRGDVEMKGKGKMRTYWLLGERKGPPGLL","guanylyl cyclase specific activity, fold higher than control cells",[4],about eleven
same,Guanylyl Cyclase Activity,[4],3.50 ± 0.01 pmole cGMP/min/mg protein
